Where no end group is shown, it is not given here. The star is where a group is joined. 5FAM = O=C1OC2(c3ccc(O)cc3Oc3cc(O)ccc32)c2ccc(C(=O)*)cc21
T1: His10-Flag3-TEV-MTA1 162-546 (UniProt Q13330 162-546)
T1 construct: MTA1 residues 162-546 (ELM2 and SANT domains and an additional domain that recruits RBBP4); The complex was captured by the Flag tag and then cut from the resin with TEV before gel filtration; also called FLAG-MTA1 162-546; MTA1-long; source: HEK293F, co-transfected, purified on FLAG resin, TEV cleavage, gel filtration; not shown: His10, N-terminal, kept; Flag3, N-terminal, kept
T1 sequence (looked up): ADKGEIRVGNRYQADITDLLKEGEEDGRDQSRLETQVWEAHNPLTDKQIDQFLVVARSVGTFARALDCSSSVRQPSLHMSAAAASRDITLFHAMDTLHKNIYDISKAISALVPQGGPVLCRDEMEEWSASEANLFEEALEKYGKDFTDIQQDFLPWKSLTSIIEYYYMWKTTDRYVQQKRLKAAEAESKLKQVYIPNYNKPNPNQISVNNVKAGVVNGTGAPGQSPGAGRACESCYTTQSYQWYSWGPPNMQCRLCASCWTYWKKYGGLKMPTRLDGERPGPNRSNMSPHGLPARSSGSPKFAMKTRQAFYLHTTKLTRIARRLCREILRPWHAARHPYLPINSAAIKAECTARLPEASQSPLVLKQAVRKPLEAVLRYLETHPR

B1: PWWP2A1–373, untagged, co-expressed in HEK293F cells (domain or fragment, UniProt Q96N64 1-373, looked up)
chain: MAAVAAEAAATAASPGEGGAGEAEPEMEPIPGSEAGTDPLPVTATEASVPDGETDGQQSAPQADEPPLPPPPPPPGELARSPEAVGPELEAEEKLSVRVAESAAAAPQGGPELPPSPASPPEQPPAPEEREEPPLPQPVAPALVPPAGGDSTVSQLIPGSEVRVTLDHIIEDALVVSFRFGEKLFSGVLMDLSKRFGPHGIPVTVFPKREYKDKPEAMPLQSNTFQEGTEVKCEANGAVPDDPSPVPHPELSLAESLWTSKPPPLFHEGAPYPPPLFIRDTYNQSIPQPPPRKIKRPKRKMYREEPTSIMNAIKLRPRQVLCDKCKNSVVAEKKEIRKGSSATDSSKYEDKKRRNESVTTVNKKLKTDHKVDG
notes: source: HEK293F, co-transfected, co-purified with FLAG-MTA1 (FLAG resin, gel filtration)
B2: fluorescein-labelled PWWP2A peptide (residues 311–325) (peptide, UniProt Q96N64 311-325, looked up)
peptide: 5FAM-NAIKLRPRQVLCDKC
modifications: cysteine pairing not given here
notes: PWWP2A residues 311-325, contains the motif R/QPRQV/L; source: synthetic peptide (Cambridge Research Biochemicals)

Experiments:
[1] = molecular target: T1, His10-Flag3-TEV-MTA1 162-546; assay: co-IP + SEC; co-expression in HEK293F of His10-Flag3-TEV-MTA1 162-546 with untagged HDAC1, RBBP4 and PWWP2A 1-373; FLAG resin, TEV cleavage, Superdex S200 in 25 mM Tris-Cl pH 7.5, 50 mM potassium acetate, 0.5 mM TCEP; SDS-PAGE; details: partners not purified
[2] = molecular target: T2, HDAC1:MTA1 162–354 complex (UniProt Q13547 1-482; Q13330 162-354); assay: fluorescence polarisation; fluorescence anisotropy of 5-FAM PWWP2A peptide with unlabelled HDAC1:MTA1 162-354 complex; room temperature; 50 mM Tris pH 7.5, 150 mM KAc, 0.15 mg/mL BSA, 0.03% Tween-20; excitation 480 nm, emission 535 nm; details: both partners purified
T2 construct: HDAC1, untagged; MTA1 residues 162-354; Unlabelled complex formed beforehand, used in the anisotropy titration; also called MTA1:HDAC1 complex; HM; source: HEK293F, co-transfected, purified (FLAG resin, TEV cleavage, gel filtration); not shown: His10, N-terminal, cleaved; Flag3, N-terminal, cleaved
T2 sequence (Q13547 whole entry, chain 1 of 2, one chain of several, the tested form may be a part): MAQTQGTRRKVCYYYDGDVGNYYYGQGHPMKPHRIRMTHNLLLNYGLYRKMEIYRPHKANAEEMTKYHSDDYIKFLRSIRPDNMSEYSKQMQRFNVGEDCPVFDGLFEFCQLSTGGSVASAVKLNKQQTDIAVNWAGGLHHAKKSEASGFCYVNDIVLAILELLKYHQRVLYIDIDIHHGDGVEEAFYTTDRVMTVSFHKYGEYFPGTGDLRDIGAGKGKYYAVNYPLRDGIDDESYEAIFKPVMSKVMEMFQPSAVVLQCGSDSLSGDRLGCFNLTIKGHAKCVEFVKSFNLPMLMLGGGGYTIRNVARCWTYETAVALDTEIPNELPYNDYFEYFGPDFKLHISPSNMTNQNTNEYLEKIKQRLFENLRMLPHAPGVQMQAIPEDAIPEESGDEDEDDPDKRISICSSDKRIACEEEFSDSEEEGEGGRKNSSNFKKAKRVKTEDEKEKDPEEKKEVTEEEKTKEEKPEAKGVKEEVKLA

Row | Binder | stoichiometry N [1] | Kd [2] [µM]
1 | B1 | ~1 | –
2 | B2 | – | 20 to 100
